Measurements from US20160362487A1 (Regeneron, published 2016).

How the values were obtained:
[1] = target: T1, cynomolgus monkey IL-33 expressed with a C-terminal hexahistidine tag (cynomolgus monkey); experiment: SPR 37C pH7.4, mAb captured
T1 construct: also called MfIL-33-6His; Mf-IL-33-6His
T1 chain: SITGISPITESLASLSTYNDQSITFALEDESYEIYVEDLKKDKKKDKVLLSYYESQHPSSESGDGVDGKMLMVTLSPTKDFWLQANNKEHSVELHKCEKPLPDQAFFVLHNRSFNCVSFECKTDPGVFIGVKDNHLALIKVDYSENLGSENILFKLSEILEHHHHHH
Procedure: (§1) Equilibrium dissociation constants (KD values) for IL-33 binding to purified anti-IL-33 monoclonal antibodies were determined using a real-time surface plasmon resonance biosensor using a Biacore 4000 instrument. The Biacore sensor surface was first derivatized by amine coupling with either a polyclonal rabbit anti-mouse antibody (GE, # BR-1008-38) or with a monoclonal mouse anti-human Fc antibody (GE, # BR-1008-39) to capture anti-IL-33 monoclonal antibodies expressed with mouse or with human IgG4 constant regions, respectively. All Biacore binding studies were performed in 0.01M ADA pH 7.4, 0.15M NaCl, 3 mM EDTA, and 0.05% v/v Surfactant Tween-20 (ABS-ET running buffer). […] Association of either hIL-33 or MfIL-33-6His to the captured monoclonal antibody was monitored for 4 minutes and their dissociation in ABS-ET running buffer was monitored for 10 minutes. The effect of reduced pH on the binding of each anti-IL-33 antibody to either hIL-33 or MfIL-33-6His was studied using an in-line pH chase assay format in 0.01M ADA pH 6.0, 0.15M NaCl, 3 mM EDTA, and 0.05% v/v Surfactant Tween-20 (ABS-ET pH6 buffer). To achieve this, association of either hIL-33 or MfIL-33-6His to the captured monoclonal antibody was monitored for 4 minutes in ABS-ET running buffer. Following a 30 second dissociation of either hIL-33 or MfIL-33-6His in ABS-ET running buffer, ABS-ET pH6 buffer was injected for 3 minutes, and the analyte dissociation under the low-pH conditions was measured. All the binding kinetic experiments were performed at both 25° C. and 37° C. Kinetic association (kₐ) and dissociation (kd) constants were determined by fitting the real-time sensorgrams to a 1:1 binding model using Scrubber 2.0c curve fitting software. Binding dissociation equilibrium constants (KD) and dissociative half-lives (t½) were calculated from the kinetic rate constants as: […]

[2] = target: T2, human IL-33 (R&D Systems, #3625-IL-010/CF) (human, UniProt O95760 112-270); experiment: SPR 37C pH7.4, mAb captured
T2 construct: Commercial recombinant protein; also called hIL-33; interleukin-33
T2 sequence (looked up): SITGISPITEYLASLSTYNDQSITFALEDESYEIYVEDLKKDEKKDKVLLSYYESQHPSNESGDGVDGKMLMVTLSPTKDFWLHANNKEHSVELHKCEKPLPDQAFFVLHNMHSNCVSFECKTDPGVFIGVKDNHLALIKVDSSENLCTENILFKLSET
Procedure: as §1

[3] = target: T2, human IL-33 (R&D Systems, …); experiment: BLI; hIL-33 pre-mixed with mAb-2 Isotype control 2
Procedure: (§2) Binding competition between a panel of different anti-IL-33 monoclonal antibodies was determined using a real time, label-free bio-layer interferometry assay on an Octet® HTX biosensor (ForteBio, A Division of Pall Life Sciences). The experiment was performed at 25° C. using a buffer of 0.01M HEPES pH7.4, 0.15M NaCl, 0.05% v/v Surfactant Tween-20, and 0.1 mg/ml BSA (HBS-ET kinetics buffer) with the plate shaking at a speed of 1000 rpm. To assess whether two antibodies were able to compete with one another for binding to human IL-33, a pre-mix assay format was used where 100 nM of human IL-33 (R&D Systems; #3625-IL-010/CF) was pre-mixed with 500 nM of different anti-IL-33 monoclonal antibodies (subsequently referred to as mAb-2) for at least 2 hours prior to running the binding competition assay. […] Following the capture step, unoccupied anti-mouse Fc polyclonal antibody and anti-human Fc polyclonal antibody on the Octet biosensors were saturated by submerging them for 4 minutes into wells containing 200 μg/mL of a non-specific monoclonal antibody with a mouse Fc or with a human Fc, respectively. Finally, the Octet biosensors were immersed for 4 minutes into wells containing the pre-mixed samples of 100 nM of human IL-33 and 500 nM of mAb-2. At the end of each cycle, the non-covalently captured anti-IL-33 antibodies along with the bound pre-complex of human IL-33 and mAb-2 were removed from the biosensors using three alternate 20 second immersions into 10 mM HCl followed by submerging into HBS-ET kinetics buffer. The biosensors were washed in HBS-ET kinetics buffer in between every step of the experiment. The real-time binding response was monitored during the binding events, and the binding response (in units of nm) at the end of every step was recorded.

[4] = target: T2, human IL-33 (R&D Systems, …); experiment: BLI; hIL-33 pre-mixed with mAb-2 H1M9565N
Procedure: as §2

[5] = target: T1, cynomolgus monkey IL-33 expressed with …; experiment: BLI; captured MfIL-33-6His, mAb-1 step with Buffer
Procedure: Binding competition between a panel of different anti-IL-33 monoclonal antibodies was determined using a real time, label-free bio-layer interferometry assay on an Octet® HTX biosensor (ForteBio, A Division of Pall Life Sciences). The experiment was performed at 25° C. using a buffer of 0.01M HEPES pH7.4, 0.15M NaCl, 3 mM EDTA, 0.05% v/v Surfactant Tween-20, and 0.1 mg/ml BSA (HBS-ET kinetics buffer) with the plate shaking at a speed of 1000 rpm. […] The antigen-captured biosensors were then saturated with a first anti-IL-33 monoclonal antibody (subsequently referred to as mAb-1) by immersion into wells containing 50 μg/mL solution of mAb-1 for 5 minutes. The biosensors were then dipped into wells containing a 50 μg/mL solution of a second anti-IL-33 monoclonal antibody (subsequently referred to as mAb-2) for 4 minutes. The biosensors were washed in HBS-ET kinetics buffer in between every step of the experiment. The real-time binding response was monitored during the experiment, and the maximum binding response for each binding step was recorded. The response of mAb-2 binding to MfIL-33-6His pre-complexed with mAb-1 was measured, and competitive/non-competitive behavior of different anti-IL-33 monoclonal antibodies with respect to each other was determined.

B1: H1M9566N (antibody, mouse IgG1, V domains shown)
VH: EVQLLESGGDLVQPGGSLRLSCAASGFTFSSYAMSWVRQAPGKGLEWVSVISGSGSSTDYADSVKGRFTISRDNSRDTLHLQMNSLRAEDTAVYYCAKTFYYFYGLDVWGQGTTVTVSS
VL: DIQMTQSPSSLSASLRDRVTITCRASQGISNYLAWYQQKPGKVPKVLIYAASTLQSGVPSRFSGSGSGTVFTLTISSLQTEDVATYYCQKYSSAPFTFGPGTKVDIK
notes: Human variable domains, mouse IgG1 Fc (H1M)
- Kd [1]: 1 nM
- koff [1]: 0.0004 s⁻¹
- kon [1]: 399000 M⁻¹ s⁻¹
- t½ [1]: 29 min
- Kd [2]: 1.7 nM
- koff [2]: 0.000283 s⁻¹
- kon [2]: 166000 M⁻¹ s⁻¹
- t½ [2]: 41 min
- mAb-1 Binding to the Pre-complex of mAb-2 & hIL-33 [3]: 0.1 nm
- mAb-1 Binding to the Pre-complex of mAb-2 & hIL-33 [4]: 0.17 nm
- mAb-2 Binding to the Pre-complex of mAb-1 & MfIL-33-6xHis [5]: 0.39 nm

B2: H1M9565N (antibody, mouse IgG1, V domains shown)
VH: QVTLKESGPVLVKPTESLTLTCSVSGFSLSNVRMGVSWIRQSPGKALEWLAHIFSNDEKSYTTSLKTRLTISKDTSRSQVVLTMTDMDPGDTATYYCARIRNLAFNYWGQGTLVTVSS
VL: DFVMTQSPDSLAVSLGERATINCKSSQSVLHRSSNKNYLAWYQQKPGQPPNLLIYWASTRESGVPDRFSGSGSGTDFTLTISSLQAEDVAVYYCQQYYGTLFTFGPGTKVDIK
notes: as for B1
- Kd [1]: 2.59 nM
- koff [1]: 0.000202 s⁻¹
- kon [1]: 78200 M⁻¹ s⁻¹
- t½ [1]: 57 min
- mAb-1 Binding to the Pre-complex of mAb-2 & hIL-33 [3]: 0.03 nm
- mAb-2 Binding to the Pre-complex of mAb-1 & MfIL-33-6xHis [5]: 0.34 nm

B3: H1M9568N (antibody, mouse IgG1, V domains shown)
VH: QVLLVQSGAEVKKPGATVKVSCKASGSTFTGYYMHWVRQAPGQGLEWMGWINPNNGGTNYAQKFQGRVTMTRDTSISTAYMELSRLRSDDTAVYYCARELRYNWKSWGQGTLVTVSS
VL: EIVLTQSPGTLSLSPGERVTLSCRASQSVGRPYLAWYQQIPGQAPRLLIYGASSRATDIPDRFSGNGSGTDFTLTISRLEPEDFAVYYCQQYDNSPYTFGQGTRLEIK
notes: as for B1
- Kd [1]: 4.46 nM
- koff [1]: 0.00173 s⁻¹
- kon [1]: 389000 M⁻¹ s⁻¹
- t½ [1]: 7 min
- Kd [2]: 1.43 nM
- koff [2]: 0.000961 s⁻¹
- kon [2]: 672000 M⁻¹ s⁻¹
- t½ [2]: 12 min
- mAb-1 Binding to the Pre-complex of mAb-2 & hIL-33 [3]: 0.1 nm
- mAb-1 Binding to the Pre-complex of mAb-2 & hIL-33 [4]: 0.08 nm
- mAb-2 Binding to the Pre-complex of mAb-1 & MfIL-33-6xHis [5]: 0.37 nm

B4: H4H9629P (antibody, human IgG4, V domains shown)
VH: EVQLVESGGGLVQPGGSLRLSCAASGFTFRSFAMSWVRQAPGKGLELVSDLRTSGGSTYYADSVKGRLTISRDNSKNTLYLQMNSLRAEDTAVYYCAKSHYSTSWFGGFDYWGQGTLVTVSS
VL: DIQMTQSPSSVSASVGDRVTITCRASQGFSSWLAWYQQKPGKAPKLLIYAASSLQSGVPSRFSGSGSGTDFTLTITNLQPEDFATYYCQQANSFPLTFGGGTKVEIK
notes: Human IgG4 Fc (H4H)
- Kd [1]: 32.4 nM
- koff [1]: 0.0347 s⁻¹
- kon [1]: 1.07e+06 M⁻¹ s⁻¹
- t½ [1]: 0.3 min
- Kd [2]: 0.508 nM
- koff [2]: 0.000646 s⁻¹
- kon [2]: 1.27e+06 M⁻¹ s⁻¹
- t½ [2]: 18 min
- mAb-1 Binding to the Pre-complex of mAb-2 & hIL-33 [3]: 0.14 nm
- mAb-1 Binding to the Pre-complex of mAb-2 & hIL-33 [4]: 0.74 nm
- mAb-2 Binding to the Pre-complex of mAb-1 & MfIL-33-6xHis [5]: 0.3 nm

B5: H4H9633P (antibody, human IgG4, V domains shown)
VH: EVQLVESGGGLVQPGGSLRLSCAASGFTFSSYVMSWVRQAPGKGLEWVSSISGNGGSTNYADSVKGRFTISRDNSKNTLFLEMNSLRAEDTAVYYCAKSLGTTTTFLGFDYWGQGTLVTVSS
VL: DIQMTQSPSSVSASVGDRVTITCRASQGISSWLAWYQQKPGKAPKLLIYAASSLQSGVPSRFSGSGSGTYFTLTISSLQPEDFATYYCQQANSFPLTFGGGTKVEIK
notes: Human IgG4 Fc (H4H)
- Kd [1]: 48.6 nM
- koff [1]: 0.0227 s⁻¹
- kon [1]: 468000 M⁻¹ s⁻¹
- t½ [1]: 0.5 min
- Kd [2]: 0.931 nM
- koff [2]: 0.000689 s⁻¹
- kon [2]: 740000 M⁻¹ s⁻¹
- t½ [2]: 17 min
- mAb-1 Binding to the Pre-complex of mAb-2 & hIL-33 [3]: 0.15 nm
- mAb-1 Binding to the Pre-complex of mAb-2 & hIL-33 [4]: 0.66 nm
- mAb-2 Binding to the Pre-complex of mAb-1 & MfIL-33-6xHis [5]: 0.32 nm

B6: H4H9640P (antibody, human IgG4, V domains shown)
VH: QVQLQESGPGLVKPSETLSLTCTVSGGSISSYYWSWIRQPPGKGLELIGYIYYSGSTNYNPSLKSRVTISVDTSKNHFSLKLSSVTAADTAVYYCARSQYTSSWYGSFDIWGQGTMVTVSS
VL: DIQMTQSPSSVSASVGDRVTITCRASQGISTWLAWFQQKPGKAPKLLIYAASTLQGGVPSRFSGSGSGPEFTLTISSLQPEDFATYYCQQANSFPWTFGQGTKVEIK
notes: Human IgG4 Fc (H4H)
- Kd [1]: 5.38 nM
- koff [1]: 0.00436 s⁻¹
- kon [1]: 810000 M⁻¹ s⁻¹
- t½ [1]: 2.6 min
- Kd [2]: 0.498 nM
- koff [2]: 0.000573 s⁻¹
- kon [2]: 1.15e+06 M⁻¹ s⁻¹
- t½ [2]: 20 min
- mAb-1 Binding to the Pre-complex of mAb-2 & hIL-33 [3]: 0.1 nm
- mAb-1 Binding to the Pre-complex of mAb-2 & hIL-33 [4]: 0.57 nm
- mAb-2 Binding to the Pre-complex of mAb-1 & MfIL-33-6xHis [5]: 0.33 nm

B7: H4H9659P (antibody, human IgG4, V domains shown)
VH: QVQLVQSGAEVKKPGASVKVSCKASGYTFNSYGISWVRQAPGQGLEWMGWISSHNGNSHYVQKFQGRVSMTTDTSTSTAYMELRSLRSDDTAVYYCARHSYTTSWYGGFDYWGQGTLVTVSS
VL: DIQMTQSPSSVSASVGDRVTITCRASQGFSSWLAWYQQKPGKAPQLLIYAASSLQSGVPSRFSGSGSGSDFTLTISSLQPEDFATYYCQQANSFPLTFGGGTKVEIK
notes: Human IgG4 Fc (H4H)
- Kd [1]: 3.11 nM
- koff [1]: 0.00186 s⁻¹
- kon [1]: 598000 M⁻¹ s⁻¹
- t½ [1]: 6 min
- Kd [2]: 0.57 nM
- koff [2]: 0.000403 s⁻¹
- kon [2]: 707000 M⁻¹ s⁻¹
- t½ [2]: 29 min
- mAb-1 Binding to the Pre-complex of mAb-2 & hIL-33 [3]: 0.09 nm
- mAb-1 Binding to the Pre-complex of mAb-2 & hIL-33 [4]: 0.52 nm
- mAb-2 Binding to the Pre-complex of mAb-1 & MfIL-33-6xHis [5]: 0.31 nm
